Experiments:
[1] = biological target: Visinin-like Protein 1 (VILIP-1), unmyristoylated (human) (UniProt P62760); experiment: small-angle X-ray scattering (SAXS); 12 mg/mL (542 uM) VILIP-1, 100 mM NaCl, 5 mM CaCl2, 2.5 mM DTT, 20 mM HEPES pH 7.5, 20 °C; mass from forward scattering, ab initio shape
[2] = biological target: Visinin-like Protein 1 (VILIP-1), unmyristoylated (human) (UniProt P62760); experiment: SEC; Sephadex 200 column, 100 mM NaCl, 20 mM HEPES pH 7.5, 0.5 mL/min; samples with 0.1 mM EDTA or 5 mM CaCl2, non-reduced or reduced with 2.5 mM DTT; monomer and dimer peaks

Q: What does the source list for “Visinin-like Protein 1 (VILIP-1), unmyristoylated (from UniProt P62760 1-191) (natural protein)”?
A: stoichiometry N [1]: 2; stoichiometry N [2]: 2

From PMC3206844
